Results on 10 proteins are retold here after the FLAb antibody collection.

B1: unnamed (protein)
chain 1: EVQLVESGGGLVQPGGSLRLSCAASGFTFSPFAMSWVRQAPGKGLEWVAKISPGGSWTYYSDTVTGRFTISRDNAKNSLYLQMNSLRAEDTAVYYCARQLWGYYALDIWGQGTTVTVSS
chain 2: EIVLTQSPATLSLSPGERATLSCSASISVSYMYWYQQKPGQAPRLLIYDMSNLASGIPARFSGSGSGTDFTLTISSLEPEDFAVYYCMQWSGYPYTFGGGTKVEIK
B2: unnamed (protein)
chain 1: EVQLVESGGGLVQPGRSLRLSCAASRFTFDDYAMHWVRQAPGKGLEWVSGISWNSGRIGYADSVKGRFTISRDNAENSLFLQMNGLRAEDTALYYCAKGRDSFDIWGQGTMVTVSS
chain 2: DIQMTQSPSSVSASVGDRVTITCRASQGISSWLAWYQQKPGKAPKLLIYGASSLESGVPSRFSGSGSGTDFTLTISSLQPEDFASYYCQQANSFPYTFGQGTKLEIK
B3: unnamed (protein)
chain 1: QVQLQQSDAELVKPGASVKISCKASGYTFTDHAIHWAKQKPEQGLEWIGYISPGNDDIKYNEKFKGKATLTADKSSSTAYMQLNSLTSEDSAVYFCKRSYYGHWGQGTTLTVSS
chain 2: DIQMTQSPASLSVSVGETVTITCRASENIYSNLAWYQQKQGKSPQLLVYAATNLADGVPSRFSGSGSGTQYSLKINSLQSEDFGSYYCQHFWGTPYTFGGGTRLEIK
B4: unnamed (protein)
chain 1: QVQLVQSGAEVKKPGASVKVSCKASGYTFTNYGMNWVRQAPGQGLEWMGWINTYTGEPTYADDFKGRVTMTTDTSTSTAYMELRSLRSDDTAVYYCARIGDSSPSDYWGQGTLVTVSS
chain 2: EIVMTQSPATLSVSPGERATLSCKASQSVSNDVVWYQQKPGQAPRLLIYYASNRYTGIPARFSGSGSGTEFTLTISSLQSEDFAVYYCQQDYTSPWTFGQGTKLEIK
B5: unnamed (protein)
chain 1: EVQLVESGGDLVQPGRSLRLSCVASGFTFDDYAMHWVRQAPGKGLEWVSGVSWSGSTVGYADSVKGRFTVSRDNAQKSLYLQMNSLRAEDTALYYCVKDAYKFNYYYYGLDVWGQGTTVTVSS
chain 2: EIVMTQSPATLSVSPGERATLSCRASQTILSNLAWYLQKPGQAPRLLIYGASTRATGLPARFSGSGSGTEFTLTISSLQSEDFAVYYCQQYNNWPLTFGGGTKVEIK
B6: unnamed (protein)
chain 1: EVQLQQSGPELEKPGASVKLSCKASGYSFTGYNMNWVKQSHGKSLEWIGHIDPYYGDTSYNQKFRGKATLTVDKSSSTAYMQLKSLTSEDSAVYYCVKGGYYGHWYFDVWGAGTTVTVSS
chain 2: DIQMTQSPSSLSASLGERVSLTCRASQDIGSSLNWLQQGPDGTIKRLIYATSSLDSGVPKRFSGSRSGSDYSLTISSLESEDFVDYYCLQYVSSPPTFGAGTKLELK
B7: unnamed (protein)
chain 1: EVQLVESGGKLLKPGGSLKLSCAASGFTFSSFAMSWFRQSPEKRLEWVAEISSGGSYTYYPDTVTGRFTISRDNAKNTLYLEMSSLRSEDTAMYYCARGLWGYYALDYWGQGTSVTVSS
chain 2: QIVLIQSPAIMSASPGEKVTMTCSASSSVSYMYWYQQKPGSSPRLLIYDTSNLASGVPVRFSGSGSGTSYSLTISRMEAEDAATYYCQQWSGYPYTFGGGTKLEIK
B8: unnamed (protein)
chain 1: QVQLVESGGGLVQPGGSLRLSCAASGFTFRSHWLSWVRQAPGKGLEWVSNINYDGSSTYYADSVKGRFTISRDNSKNTLYLQMNSLRAEDTAVYYCARDTYLHFDYWGQGTLVTVSS
chain 2: DIALTQPASVSGSPGQSITISCTGTSSDVGDINDVSWYQQHPGKAPKLMIYDVNNRPSGVSNRFSGSKSGNTASLTISGLQAEDEADYYCQSYAGSYLSEVFGGGTKLTVL
B9: unnamed (protein)
chain 1: EVQLVESGGGLVQPGGSLRLSCAASGFTFSRYSMSWVRQAPGKGLELVAQINSVGNSTYYPDTVKGRFTISRDNAKNTLYLQMNSLRAEDTAVYYCASGDYWGQGTLVTVSS
chain 2: DVVMTQSPLSLPVTLGQPASISCRSSQSLIYSDGNAYLHWFLQKPGQSPRLLIYKVSNRFSGVPDRFSGSGSGTDFTLKISRVEAEDVGVYYCSQSTHVPWTFGQGTKVEIK
B10: unnamed (protein)
chain 1: EVQLVESGGGLVKPGGSLRLSCAASGFTFSNYAMSWVRQAPGKGLEWVATISSGGSHTYYLDSVKGRFTISRDNSKNTLYLQMNSLRAEDTALYYCARLFTGYAMDYWGQGTLVTVSS
chain 2: QIVLTQSPATLSLSPGERATMSCTASSSVSSSYLHWYQQKPGKAPKLWIYSTSNLASGVPSRFSGSGSGTDYTLTISSLQPEDFATYYCHQYYRLPPITFGQGTKLEIK

The data set can be described thus: patients with anti-drug antibodies; higher = more immunogenic.
For the protein B1, the “patients with anti-drug antibodies” value was found to be 2.9%.
To B2 belongs 3.8%; to B3, 55%.
Consider B4, for which the “patients with anti-drug antibodies” value worked out at 0%.
Take B5: the “patients with anti-drug antibodies” value amounted to 5%.
With B6 the figure was 58%; with B7, 0.2%.
Regarding B8, the “patients with anti-drug antibodies” value worked out at 0%.
With B9 the figure was 3.5%; with B10, 8%.
